Holding throughout (assay): purified protein
Format in all cases: biochemical, Phaseolus vulgaris

Substrate in data set [1]: O=C(O)[C@@H](O)[C@@H](O)[C@H](O)[C@@H](O)C(=O)O
Particulars: co-substrate p-coumaroyl-CoA 100 μM, 100 mM sodium phosphate, pH 7.5, 1 mM EDTA, 25 °C.

Substrate in data set [2]: COc1cc(/C=C/C(=O)SCCNC(=O)CCNC(=O)[C@H](O)C(C)(C)COP(=O)(O)OP(=O)(O)OC[C@H]2O[C@@H](n3cnc4c(N)ncnc43)[C@H](O)[C@@H]2OP(=O)(O)O)ccc1O
Particulars: co-substrate saccharic acid 20 mM, 100 mM sodium phosphate, pH 7.5, 1 mM EDTA, 25 °C.

Substrate in data set [3]: CC(C)(COP(=O)(O)OP(=O)(O)OC[C@H]1O[C@@H](n2cnc3c(N)ncnc32)[C@H](O)[C@@H]1OP(=O)(O)O)[C@@H](O)C(=O)NCCC(=O)NCCSC(=O)/C=C/c1ccc(O)c(O)c1
Particulars: co-substrate saccharic acid 20 mM, 100 mM sodium phosphate, pH 7.5, 1 mM EDTA, 25 °C.

Substrate in data set [4]: CC(C)(COP(=O)(O)OP(=O)(O)OC[C@H]1O[C@@H](n2cnc3c(N)ncnc32)[C@H](O)[C@@H]1OP(=O)(O)O)[C@@H](O)C(=O)NCCC(=O)NCCSC(=O)/C=C/c1ccc(O)cc1
The settings on record: co-substrate saccharic acid 20 mM, 100 mM sodium phosphate, pH 7.5, 1 mM EDTA, 25 °C.

Substrate in data set [5]: O=C(O)[C@@H](O)[C@H](O)[C@H](O)[C@@H](O)C(=O)O
The settings on record: co-substrate p-coumaroyl-CoA 100 μM, 100 mM sodium phosphate, pH 7.5, 1 mM EDTA, 25 °C.

B1: HHHT (PvHHHT) (Phaseolus vulgaris) (protein)
chain: MVTIVASYRVLPCEETPKGHLWLADSDQVVRSGHTPTFYVYQAKHNHDTNERLRKSLGEILVHYYPVAGRLSLAEDARIQLDCNAKGVTFIEAETTKSMADYGDFSPGVVAELVPKIDYTQPVEEIPLMLVQSTRLPGGNGFVIGLAVCHVLSDGLGSIQFINSWAKLGRGETLEPHELPYLDRTVLKHQHSSTSPSPCFDHPELKPLPLKLGSSDINAEQKKKTRAVLLKLTRQQVEKLKKEANEQPLQEGVRAYSRFEALAGHIWRSASKARELEEKQPTVVRFNADIRSRVIPPLPKNYYGNALAATVTPKCYVGEIVSKPLSYAAQKVREAIEKLTNEYIRSQLKNVLGEEQLDCIRRLFMGEGERRNVPFAGNPNLHITSWMSMPLYEADFGWGKPVNFGLAYVFAQDRAVIILSPHGDGSIVISMTFQEEHLELFKKFFYETI
notes: full length, N-terminal 6xHis tag (pET28a(+)), codon-optimized, E. coli Rosetta 2 (DE3) pLysS, IMAC purified; tag cleavage not mentioned
Take B1: the Km – broadly, the substrate concentration at which the rate is half of its maximum – was 5,200 ± 500 μM in data set [1]; 9.6 ± 0.4 µM in data set [2]; 5.8 ± 0.4 µM in data set [3]; 7.2 ± 0.5 µM in data set [4]; 4,400 ± 700 μM in data set [5]. The kcat (commonly the number of substrate molecules converted per active site and unit of time at saturation) worked out at 6.4 ± 0.2 s⁻¹ in data set [1]; 6 ± 0.1 s⁻¹ in data set [2]; 3.4 ± 0.1 s⁻¹ in data set [3]; 5.9 ± 0.1 s⁻¹ in data set [4]; 1.5 ± 0.1 s⁻¹ in data set [5]. Also, the kcat/Km (in general, the turnover number divided by the Michaelis constant) in data set [1] came out at 1200 ± 100 M⁻¹ s⁻¹; in data set [2], 630000 ± 20000 M⁻¹ s⁻¹; in data set [3] it was 590000 ± 40000 M⁻¹ s⁻¹; in data set [4] it was 820000 ± 60000 M⁻¹ s⁻¹; in data set [5] it was 340 ± 50 M⁻¹ s⁻¹.
